According to patent publication US20240376171A1 (Hoffmann-La Roche, published 2024):

B1: murine TA PD1-IL2v, MT204, 2xPQARK, in line (antibody, mouse IgG1, kappa)
light: KIVLTQSPASLPVSLGQRATISCRASESVDTSDNSFIHWYQQRPGQSPKLLIYRSSTLESGVPARFSGSGSRTDFTLTIDPVEADDVATYYCQQNYDVPWTFGGGTKLEIKRADAAPTVSIFPPSSEQLTSGGASVVCFLNNFYPKDINVKWKIDGSERQNGVLNSWTDQDSKDSTYSMSSTLTLTKDEYERHNSYTCEATHKTSTSPIVKSFNRNEC
heavy 1: EVILVESGGGLVKPGGSLKLSCAASGFSFSSYTMSWVRQTPEKRLDWVATISGGGRDIYYPDSVKGRFTISRDNAKNTLYLEMSSLMSEDTALYYCVLLTGRVYFALDSWGQGTSVTVSSAKTTPPSVYPLAPGSAAQTNSMVTLGCLVKGYFPEPVTVTWNSGSLSSGVHTFPAVLQSDLYTLSSSVTVPSSTWPSQTVTCNVAHPASSTKVDKKIVPRDCGCKPCICTVPEVSSVFIFPPKPKDVLTITLTPKVTCVVVAISKDDPEVQFSWFVDDVEVHTAQTKPREEQINSTFRSVSELPIMHQDWLNGKEFKCRVNSAAFGAPIEKTISKTKGRPKAPQVYTIPPPKKQMAKDKVSLTCMITNFFPEDITVEWQWNGQPAENYKNTQPIMKTDGSYFVYSKLNVQKSNWEAGNTFTCSVLHEGLHNHHTEKSLSHSPG
heavy 2: EVILVESGGGLVKPGGSLKLSCAASGFSFSSYTMSWVRQTPEKRLDWVATISGGGRDIYYPDSVKGRFTISRDNAKNTLYLEMSSLMSEDTALYYCVLLTGRVYFALDSWGQGTSVTVSSAKTTPPSVYPLAPGSAAQTNSMVTLGCLVKGYFPEPVTVTWNSGSLSSGVHTFPAVLQSDLYTLSSSVTVPSSTWPSQTVTCNVAHPASSTKVDKKIVPRDCGCKPCICTVPEVSSVFIFPPKPKDVLTITLTPKVTCVVVAISKDDPEVQFSWFVDDVEVHTAQTKPREEQINSTFRSVSELPIMHQDWLNGKEFKCRVNSAAFGAPIEKTISKTKGRPKAPQVYTIPPPKEQMAKDKVSLTCMITNFFPEDITVEWQWNGQPAENYDNTQPIMDTDGSYFVYSDLNVQKSNWEAGNTFTCSVLHEGLHNHHTEKSLSHSPGGGGGSGGGGSGGGGGAPASSSTKKTQLQLEHLLLDLQMILNGINNYKNPKLTRMLTAKFAMPKKATELKHLQCLEEELKPLEEVLNGAQSKNFHLRPRDLISNINVIVLELKGSETTFMCEYADETATIVEFLNRWITFAQSIISTLTGGGGSGGGGSPQARKGGGGSGGGGSGGGGSGGGGSGGGEVQLVESGGGLVQPGGSLRLSCAASGFTFSSYTLAWVRQAPGKGLEWVAAIDSSSYTYSPDTVRGRFTISRDNAKNSLYLQMNSLRAEDTAVYYCARDSNWDALDYWGQGTTVTVSSGGGGSGGPQARKGGGGSGGGDIQMTQSPSSLSASVGDRVTITCKASQNVGTNVGWYQQKPGKAPKALIYSASFRYSGVPSRFSGSGSGTDFTLTISSLQPEDFATYYCQQYYTYPYTFGGGTKVEIK
notes: Murine surrogate: bivalent human PD1-targeted murine IgG DA PG with masked human IL2v in-line on the C-terminus of the Fc DD- chain, two PQARK sites; also called P1AG9983; P1AG9983-001
B2: murine PD1-IL2v, unmasked, in line (antibody, mouse IgG1, kappa)
light: B1 light
heavy 1: B1 heavy 1
heavy 2: EVILVESGGGLVKPGGSLKLSCAASGFSFSSYTMSWVRQTPEKRLDWVATISGGGRDIYYPDSVKGRFTISRDNAKNTLYLEMSSLMSEDTALYYCVLLTGRVYFALDSWGQGTSVTVSSAKTTPPSVYPLAPGSAAQTNSMVTLGCLVKGYFPEPVTVTWNSGSLSSGVHTFPAVLQSDLYTLSSSVTVPSSTWPSQTVTCNVAHPASSTKVDKKIVPRDCGCKPCICTVPEVSSVFIFPPKPKDVLTITLTPKVTCVVVAISKDDPEVQFSWFVDDVEVHTAQTKPREEQINSTFRSVSELPIMHQDWLNGKEFKCRVNSAAFGAPIEKTISKTKGRPKAPQVYTIPPPKEQMAKDKVSLTCMITNFFPEDITVEWQWNGQPAENYDNTQPIMDTDGSYFVYSDLNVQKSNWEAGNTFTCSVLHEGLHNHHTEKSLSHSPGGGGGSGGGGSGGGGGAPASSSTKKTQLQLEHLLLDLQMILNGINNYKNPKLTRMLTAKFAMPKKATELKHLQCLEEELKPLEEVLNGAQSKNFHLRPRDLISNINVIVLELKGSETTFMCEYADETATIVEFLNRWITFAQSIISTLT
notes: Murine surrogate: bivalent human PD1-targeted murine IgG DA PG with IL2v fused to the C-terminus of the Fc DD- chain (non-masked control); also called P1AG7552; P1AG7552-006
B3: human TA PD1-IL2v, MT204, 2xPQARK, N-term (antibody)
light: DIVMTQSPDSLAVSLGERATINCKASESVDTSDNSFIHWYQQKPGQSPKLLIYRSSTLESGVPDRFSGSGSGTDFTLTISSLQAEDVAVYYCQQNYDVPWTFGQGTKVEIKRTVAAPSVFIFPPSDEQLKSGTASVVCLLNNFYPREAKVQWKVDNALQSGNSQESVTEQDSKDSTYSLSSTLTLSKADYEKHKVYACEVTHQGLSSPVTKSFNRGEC
heavy: EVQLLESGGGLVQPGGSLRLSCAASGFSFSSYTMSWVRQAPGKGLEWVATISGGGRDIYYPDSVKGRFTISRDNSKNTLYLQMNSLRAEDTAVYYCVLLTGRVYFALDSWGQGTLVTVSSASTKGPSVFPLAPSSKSTSGGTAALGCLVKDYFPEPVTVSWNSGALTSGVHTFPAVLQSSGLYSLSSVVTVPSSSLGTQTYICNVNHKPSNTKVDKKVEPKSCDKTHTCPPCPAPEAAGGPSVFLFPPKPKDTLMISRTPEVTCVVVDVSHEDPEVKFNWYVDGVEVHNAKTKPREEQYNSTYRVVSVLTVLHQDWLNGKEYKCKVSNKALGAPIEKTISKAKGQPREPQVCTLPPSRDELTKNQVSLSCAVKGFYPSDIAVEWESNGQPENNYKTTPPVLDSDGSFFLVSKLTVDKSRWQQGNVFSCSVMHEALHNHYTQKSLSLSPG
chain: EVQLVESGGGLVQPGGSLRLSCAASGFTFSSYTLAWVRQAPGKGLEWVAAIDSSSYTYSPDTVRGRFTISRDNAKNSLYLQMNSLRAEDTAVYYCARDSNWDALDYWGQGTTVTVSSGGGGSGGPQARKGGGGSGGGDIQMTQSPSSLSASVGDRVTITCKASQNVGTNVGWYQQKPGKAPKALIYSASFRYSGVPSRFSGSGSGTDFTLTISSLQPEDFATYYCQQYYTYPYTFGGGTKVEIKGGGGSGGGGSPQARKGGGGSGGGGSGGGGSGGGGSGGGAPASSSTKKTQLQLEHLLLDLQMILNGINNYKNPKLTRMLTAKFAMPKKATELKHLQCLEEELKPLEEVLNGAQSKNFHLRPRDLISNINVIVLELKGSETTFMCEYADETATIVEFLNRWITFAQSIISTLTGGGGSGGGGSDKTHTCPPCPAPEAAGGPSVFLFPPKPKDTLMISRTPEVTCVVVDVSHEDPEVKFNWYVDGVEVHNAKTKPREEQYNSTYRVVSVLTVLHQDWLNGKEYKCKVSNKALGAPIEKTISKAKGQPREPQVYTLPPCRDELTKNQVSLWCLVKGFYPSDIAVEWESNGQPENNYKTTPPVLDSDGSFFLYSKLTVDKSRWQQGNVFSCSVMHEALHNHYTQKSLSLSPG
notes: One-armed human PD1-targeted human IgG PG LALA (knobs-into-holes); MT204 scFv-masked IL2v is fused N-terminally to the hinge of the Fc knob chain, with two PQARK sites; also called P1AG9597; P1AG9597-007
B4: human PD1-IL2v, unmasked, N-term (antibody, human IgG1, kappa, L234A L235A)
light: B3 light
heavy: EVQLLESGGGLVQPGGSLRLSCAASGFSFSSYTMSWVRQAPGKGLEWVATISGGGRDIYYPDSVKGRFTISRDNSKNTLYLQMNSLRAEDTAVYYCVLLTGRVYFALDSWGQGTLVTVSSASTKGPSVFPLAPSSKSTSGGTAALGCLVKDYFPEPVTVSWNSGALTSGVHTFPAVLQSSGLYSLSSVVTVPSSSLGTQTYICNVNHKPSNTKVDKKVEPKSCDKTHTCPPCPAPEAAGGPSVFLFPPKPKDTLMISRTPEVTCVVVDVSHEDPEVKFNWYVDGVEVHNAKTKPREEQYNSTYRVVSVLTVLHQDWLNGKEYKCKVSNKALGAPIEKTISKAKGQPREPQVCTLPPSRDELTKNQVSLSCAVKGFYPSDIAVEWESNGQPENNYKTTPPVLDSDGSFFLVSKLTVDKSRWQQGNVFSCSVMHEALHNHYTQKSLSLSPGK
chain: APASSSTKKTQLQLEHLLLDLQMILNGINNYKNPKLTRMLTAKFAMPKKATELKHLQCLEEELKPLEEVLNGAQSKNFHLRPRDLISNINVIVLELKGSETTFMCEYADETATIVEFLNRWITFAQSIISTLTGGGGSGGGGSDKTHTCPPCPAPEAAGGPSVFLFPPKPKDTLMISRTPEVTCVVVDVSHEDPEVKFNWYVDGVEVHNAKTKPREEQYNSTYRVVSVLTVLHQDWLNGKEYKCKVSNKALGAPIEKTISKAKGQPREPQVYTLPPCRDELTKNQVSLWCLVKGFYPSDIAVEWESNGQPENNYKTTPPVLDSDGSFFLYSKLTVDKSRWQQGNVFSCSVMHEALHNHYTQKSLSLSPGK
notes: One-armed human PD1-targeted human IgG PG LALA with IL2v fused N-terminally to the hinge of the Fc knob chain (non-masked control); also called P1AG3071; P1AG3071-004

Tests used:
[1] = target: T1, PD1 on activated human CD4 and CD8 T cells (human, UniProt Q15116 25-288); assay: flow cytometry, CD3/CD28-activated human PBMCs gated on CD3+CD8+ T cells, FITC anti-mouse Fc secondary antibody; no Matriptase digestion described
T1 construct: whole, on cells; Endogenous PD1 on CD3/CD28-stimulated T cells; also called human PD1; PD1 receptor
Procedure: (§1) PBMCs were bought from Biomex from a healthy donor (Lot 5000899PB). The PBMCs were stimulated for 3 days with CD3 and CD28 to induce upregulation of PD1 on T cells. Therefore, PBMCs were seeded in medium (RPMI1640, 10% FCS, 2 mM Glutamine) into cell culture flasks that were coated for 1 h at 37° C. with 1 μg/ml CD3 (clone OKT3, 302914, BioLegend). CD28 was added in solution to the PBMCs at a concentration of 1 μg/ml (clone CD28.2, 302914, BioLegend). After three days, PBMCs were harvested and transferred into a 96 well round bottom plate (200′000 cells per well). The cells were washed with FACS buffer (PBS, 2% FBS, 5 mM EDTA, 0.025% NaN3) and stained with 30 μl of corresponding TA PD1-IL2v constructs in FACS buffer for 30 min at 4° C. The cells were washed twice with FACS buffer to remove unbound molecules. Then 30 μl of the diluted FITC anti-mouse Fc specific secondary antibody (1:50 dilution, 115-096-071, Jackson ImmunoResearch) or for the human constructs the diluted FITC anti-human Fc specific secondary antibody (1:50 dilution, 115-096-098, Jackson ImmunoResearch) was added to the cells. After 30 min incubation at 4° C. the cells were washed twice with FACS buffer. […] Finally the cells were resuspended in 150 μl FACs buffer and measured using a BD Fortessa gating on CD3+CD4+ cells (CD4 T cells) and CD3+CD8+ cells (CD8 T cells).

[2] = target: T1, PD1 on activated human CD4 and CD8 T …; assay: flow cytometry, CD3/CD28-activated human PBMCs gated on CD3+CD4+ T cells, FITC anti-mouse Fc secondary antibody; no Matriptase digestion described
Procedure: as §1

[3] = target: T1, PD1 on activated human CD4 and CD8 T …; assay: flow cytometry, CD3/CD28-activated human PBMCs gated on CD3+CD8+ T cells, PE anti-human Fc secondary antibody; TA constructs pre-incubated with Matriptase, unmasked controls not
Procedure: (§2) Three formats of TA PD1-IL2v molecules and respective controls were assessed for their capacity to bind to activated PD1 positive CD8 T cells and CD4 T cells within PBMCs in comparison to the respective unmasked molecules.
(§3) PBMCs were purchased from Biomex from a healthy donor (Lot 5000729PB). The PBMCs were stimulated for three days with CD3 and CD28 to induce upregulation of PD1 on T cells. Therefore, PBMCs were seeded in medium (RPMI1640, 10% FCS, 2 mM Glutamine) into cell culture flasks that were coated for 1 hour at 37° C. with 1 μg/ml CD3 (clone OKT3, 302914, BioLegend). CD28 was added in solution to the PBMCs at a concentration of 1 μg/ml (clone CD28.2, 302914, BioLegend). After three days, PBMCs were harvested and transferred into a 96 well round bottom plate (200′000 cells per well). The cells were washed with FACS buffer (PBS, 2% FBS, 5 mM EDTA, 0.025% NaN3) and stained with 30 μl of corresponding TA PD1-IL2v constructs in FACS buffer for 30 min at 4° C. Prior to the staining, 20 μg of the TA PD1-IL2v constructs were digested with 4 μl Matriptase (Enzo ˜2.5 U/μl, ALX-201-246-U25, Lot 12152015, or without Matriptase for the unmasked controls) for 2 hours at 37° C. in 40 μl Matriptase buffer (50 mM Tris, 50 mM NaCl, 0.01% Tween 20, pH 9.0). After the staining, the cells were washed twice with FACS buffer to remove unbound molecules. Then 30 μl of the diluted PE anti-human Fc specific secondary antibody (1:50 dilution, 109-116-170, Jackson ImmunoResearch) was added to the cells. After 30 min incubation at 4° C. the cells were washed twice with FACS buffer. To detect T cells, PBMCs were stained with 30 μl of a mixture of CD3 PE/Cyanine7 (clone UCHT1, 300420, BioLegend), CD4 FITC (clone RPA-T4, 300528, BioLegend) and CD8 APC/Cyanine7 (clone HIT8a, 300926, BioLegend) for 30 min at 4° C. The unbound antibodies were removed by washing twice with FACS buffer. Finally the cells resuspended in 150 μl FACS buffer and measured using a BD Fortessa gating on CD3+CD4+ cells (CD4 T cells) and CD3+CD8+ cells (CD8 T cells).

[4] = target: T1, PD1 on activated human CD4 and CD8 T …; assay: flow cytometry, CD3/CD28-activated human PBMCs gated on CD3+CD4+ T cells, PE anti-human Fc secondary antibody; TA constructs pre-incubated with Matriptase, unmasked controls not
Procedure: as §2, §3

[5] = target: T1, PD1 on activated human CD4 and CD8 T …; assay: flow cytometry on CD3/CD28-activated T cells (CD4 and CD8) within human PBMCs; construct digested with matriptase; PE anti-human Fc secondary
Procedure: as §3, with “Then 30 μl of the diluted PE anti-human Fc specific secondary antibody (1:50 dilution, 109-116-170, Jackson ImmunoResearch) was added to the cells. After 30 min incubation at 4° C. the cells were washed twice with FACS buffer. To detect T cells, PBMCs were stained with 30 μl of a mixture of CD3 PE/Cyanine7 (clone UCHT1, 300420, BioLegend), CD4 FITC (clone RPA-T4, 300528, BioLegend) and CD8 APC/Cyanine7 (clone HIT8a, 300926, BioLegend) for 30 min at 4° C. The unbound antibodies were removed by washing twice with FACS buffer.” left out

[6] = target: T1, PD1 on activated human CD4 and CD8 T …; assay: flow cytometry on CD3/CD28-activated T cells (CD4 and CD8) within human PBMCs; no matriptase; PE anti-human Fc secondary
Procedure: as §3, with “Then 30 μl of the diluted PE anti-human Fc specific secondary antibody (1:50 dilution, 109-116-170, Jackson ImmunoResearch) was added to the cells. After 30 min incubation at 4° C. the cells were washed twice with FACS buffer. To detect T cells, PBMCs were stained with 30 μl of a mixture of CD3 PE/Cyanine7 (clone UCHT1, 300420, BioLegend), CD4 FITC (clone RPA-T4, 300528, BioLegend) and CD8 APC/Cyanine7 (clone HIT8a, 300926, BioLegend) for 30 min at 4° C. The unbound antibodies were removed by washing twice with FACS buffer.” left out

T1 sequence (Q15116 25-288): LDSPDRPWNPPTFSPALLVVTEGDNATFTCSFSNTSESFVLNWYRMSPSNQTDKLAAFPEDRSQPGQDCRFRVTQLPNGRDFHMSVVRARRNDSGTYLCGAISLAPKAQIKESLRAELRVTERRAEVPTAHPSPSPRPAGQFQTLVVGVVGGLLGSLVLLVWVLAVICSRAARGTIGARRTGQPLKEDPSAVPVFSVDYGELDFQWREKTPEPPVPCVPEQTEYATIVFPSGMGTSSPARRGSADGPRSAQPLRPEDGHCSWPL

Binder | EC50 (read off the curve) [1] [nM] | EC50 (read off the curve) [2] [nM] | EC50 (read off the curve) [3] [nM] | EC50 (read off the curve) [4] [nM] | fold binding capacity versus the "in line" and knob/hole formats [5] [fold] | fold binding capacity versus the "in line" and knob/hole formats [6] [fold]
B1 | ~2 | ~2 | – | – | – | –
B2 | ~2 | ~2 | – | – | – | –
B3 | – | – | ~3 | ~2 | ~2 | –
B4 | – | – | ~2 | ~1 | – | ~2
